Experimental data published in patent US20230107856A1 (SHANGHAI JUNSHI BIOSCIENCES, published 2023).
“And” between values parts separate entries of the source, which are not always exact repeats. Equal values may be shown once.

Target: T1, PD-1 (as used in the competitive ELISA) (UniProt Q15116 25-167, limits assumed)
T1 construct: PD-1 is inferred as the target from the next sentence on PD-1 receptor occupancy
Assay: competitive ELISA; competing ligand not named

B1: toripalimab (antibody, human IgG4 S228P, kappa, V domains shown)
VH: QGQLVQSGAEVKKPGASVKVSCKASGYTFTDYEMHWVRQAPIHGLEWIGVIESETGGTAYNQKFKGRVTITADKSTSTAYMELSSLRSEDTAVYYCAREGITTVATTYYWYFDVWGQGTTVTVSS
VL: DVVMTQSPLSLPVTLGQPASISCRSSQSIVHSNGNTYLEWYLQKPGQSPQLLIYKVSNRFSGVPDRFSGSGSGTDFTLKISRVEAEDVGVYYCFQGSHVPLTFGQGTKLEIKR
notes: Humanized IgG4 mAb; also called JS001; anti-PD-1 antibody toripalimab
- IC50: 3 nM and ~0.5 µg/mL
